Assay results from patent US20240182536A1 (MURAL ONCOLOGY, published 2024).
Where a chain is given by its changes, count along the chain named. Numbers in names are those of the source.

T1: IL-18 receptors on HEK-Blue IL-18 reporter cells (UniProt Q13478 19-541; O95256 20-599, limits assumed)
T1 sequence (looked up) 1: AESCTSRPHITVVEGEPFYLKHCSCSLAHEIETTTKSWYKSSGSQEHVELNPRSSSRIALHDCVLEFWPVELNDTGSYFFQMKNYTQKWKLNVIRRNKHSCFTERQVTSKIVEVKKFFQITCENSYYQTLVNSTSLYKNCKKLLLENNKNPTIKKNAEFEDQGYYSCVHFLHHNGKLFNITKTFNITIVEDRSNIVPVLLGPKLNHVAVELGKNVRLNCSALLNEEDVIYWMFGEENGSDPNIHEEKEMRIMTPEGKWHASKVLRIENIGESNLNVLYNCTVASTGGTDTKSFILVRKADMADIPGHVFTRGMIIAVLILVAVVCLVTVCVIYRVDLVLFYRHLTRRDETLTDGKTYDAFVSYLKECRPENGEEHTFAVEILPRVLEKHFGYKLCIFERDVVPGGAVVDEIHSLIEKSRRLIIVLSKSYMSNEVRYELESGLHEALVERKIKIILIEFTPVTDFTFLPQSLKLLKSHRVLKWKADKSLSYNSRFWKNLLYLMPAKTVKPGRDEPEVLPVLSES
T1 sequence (looked up) 2: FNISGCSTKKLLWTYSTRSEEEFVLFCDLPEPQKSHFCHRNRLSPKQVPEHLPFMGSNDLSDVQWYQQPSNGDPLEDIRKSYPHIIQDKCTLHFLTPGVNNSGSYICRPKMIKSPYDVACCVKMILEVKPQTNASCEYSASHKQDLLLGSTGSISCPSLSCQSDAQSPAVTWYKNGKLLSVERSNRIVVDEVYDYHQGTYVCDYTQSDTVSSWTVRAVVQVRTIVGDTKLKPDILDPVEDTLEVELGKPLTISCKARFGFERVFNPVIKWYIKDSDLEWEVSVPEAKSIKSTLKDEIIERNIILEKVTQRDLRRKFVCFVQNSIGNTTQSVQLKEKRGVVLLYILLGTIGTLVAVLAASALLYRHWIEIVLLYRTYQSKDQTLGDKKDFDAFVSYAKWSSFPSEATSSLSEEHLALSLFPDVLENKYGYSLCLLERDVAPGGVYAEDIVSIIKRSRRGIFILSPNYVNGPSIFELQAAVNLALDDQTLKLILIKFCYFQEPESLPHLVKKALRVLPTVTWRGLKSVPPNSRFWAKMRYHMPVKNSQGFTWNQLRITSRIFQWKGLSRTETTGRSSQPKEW

T2: IL-18 binding protein (IL-18BP) (UniProt O95998 31-194)
T2 sequence (looked up): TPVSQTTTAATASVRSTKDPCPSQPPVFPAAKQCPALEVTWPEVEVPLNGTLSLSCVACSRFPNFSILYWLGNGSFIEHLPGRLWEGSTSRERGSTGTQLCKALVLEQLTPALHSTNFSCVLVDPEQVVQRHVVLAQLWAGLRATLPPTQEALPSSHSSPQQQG

B1: IL-18 variant G3Q, E6K, D54S, S55P, T63S, N91S, R104Q (ligand)
chain: YFQKLKSKLSVIRNLNDQVLFIDQGNRPLFEDMTDSDMRDNAPRTIFIISMYKSPQPRGMAVSISVKSEKISTLSSENKIISFKEMNPPDSIKDTKSDIIFFQQSVPGHDNKMQFESSSYEGYFLASEKERDLFKLILKKEDELGDRSIMFTVQNED
B2: IL-18 variant G3I, E6Q, N91M, R104Y (ligand)
chain: B1 chain with Q3I, K6Q, S54D, P55S, S63T, S91M, Q104Y
B3: IL-18 variant G3Q, E6G, D54N, S55H, T63V, N91M, R104T (ligand)
chain: B1 chain with K6G, S54N, P55H, S63V, S91M, Q104T
B4: IL-18 variant G3Y, E6S, K53S, D54W, S55L, T63S, N91I (ligand)
chain: B1 chain with Q3Y, K6S, K53S, S54W, P55L, S91I, Q104R
B5: IL-18 variant G3L, E6Q, T63S, N91L, R104T (ligand)
chain: B1 chain with Q3L, K6Q, S54D, P55S, S91L, Q104T
B6: IL-18 variant E6G, D54A, S55K, T63S, N91K, Q114R (ligand)
chain: B1 chain with Q3G, K6G, S54A, P55K, S91K, Q104R, Q114R
B7: IL-18 variant G3Q, E6N, D54Y, S55P, T63S, N91S, R104H (ligand)
chain: B1 chain with K6N, S54Y, Q104H
B8: IL-18 variant G3Q, E6N (ligand)
chain: B1 chain with K6N, S54D, P55S, S63T, S91N, Q104R
B9: IL-18 variant G3L, E6Q, D54Y, S55P, T63S, N91S, R104Q (ligand)
chain: B1 chain with Q3L, K6Q, S54Y

These binders were tested against T1, IL-18 receptors on HEK-Blue IL-18 … (assay: cell-based or functional assay).

Going from B1 to B2, the “Activity, No BP, DF-100000” value rises from 1.92 to 2.12.

First: B3
Second: B4
The “Activity, No BP, DF-100000” value of the first is higher: 1.99 for the first, 0.68 for the second.

Going from B5 to B6, the “Activity, No BP, DF-100000” value rises from 2.12 to 2.2.

Going from B7 to B8, the “Activity, No BP, DF-100000” value rises from 1.37 to 1.95.

In the case of B9, the “Activity, No BP, DF-100000” value is reported as 1.66.

Going from B1 to B2, the “Activity, No BP, DF-500000” value rises from 1.92 to 2.

First: B3
Second: B4
The “Activity, No BP, DF-500000” value of the first is higher: 1.82 for the first, 0.23 for the second.

First: B5
Second: B6
The “Activity, No BP, DF-500000” value of the first is lower: 2.01 for the first, 2.05 for the second.

Going from B7 to B8, the “Activity, No BP, DF-500000” value rises from 0.75 to 1.93.

B9 was tested, and the “Activity, No BP, DF-500000” value was 0.9.

Compared with B1, B2 is higher in “Activity, No BP, DF-2500000” value: 1.4 for the first, 1.53 for the second.

Going from B3 to B4, the “Activity, No BP, DF-2500000” value falls from 1.01 to 0.1.

Going from B5 to B6, the “Activity, No BP, DF-2500000” value falls from 1.85 to 1.61.

First: B7
Second: B8
The “Activity, No BP, DF-2500000” value of the first is lower: 0.28 for the first, 1.85 for the second.

For B9, the “Activity, No BP, DF-2500000” value was 0.37.

The binders below were run against T2, IL-18 binding protein (IL-18BP) (assay: cell-based or functional assay).

Going from B1 to B2, the “Activity, +100 nM BP, DF-1000002” value rises from 1.55 to 1.84.

Going from B3 to B4, the “Activity, +100 nM BP, DF-1000002” value falls from 1.83 to 0.62.

Going from B5 to B6, the “Activity, +100 nM BP, DF-1000002” value rises from 1.81 to 1.89.

Compared with B7, B8 is higher in “Activity, +100 nM BP, DF-1000002” value: 0.9 for the first, 1.88 for the second.

With B9 the “Activity, +100 nM BP, DF-1000002” value was 0.75.

Going from B1 to B2, the “Activity, +100 nM BP, DF-5000003” value falls from 1.15 to 0.96.

Going from B3 to B4, the “Activity, +100 nM BP, DF-5000003” value falls from 1.38 to 0.23.

Compared with B5, B6 is higher in “Activity, +100 nM BP, DF-5000003” value: 1.15 for the first, 1.33 for the second.

Compared with B7, B8 is higher in “Activity, +100 nM BP, DF-5000003” value: 0.42 for the first, 1.52 for the second.

In the case of B9, the “Activity, +100 nM BP, DF-5000003” value is reported as 0.19.

Going from B1 to B2, the “Activity, +100 nM BP, DF-25000004” value falls from 0.45 to 0.29.

Compared with B3, B4 is lower in “Activity, +100 nM BP, DF-25000004” value: 0.7 for the first, 0.12 for the second.

Going from B5 to B6, the “Activity, +100 nM BP, DF-25000004” value rises from 0.46 to 0.49.

Going from B7 to B8, the “Activity, +100 nM BP, DF-25000004” value rises from 0.14 to 0.84.

For B9, the “Activity, +100 nM BP, DF-25000004” value was 0.1.

Going from B1 to B2, the “Ratio (-BP/+BP), DF-1000005” value falls from 1.24 to 1.15.

B3 and B4 are the same in “Ratio (-BP/+BP), DF-1000005” value: 1.09 for the first, 1.09 for the second.

B5 and B6 are the same in “Ratio (-BP/+BP), DF-1000005” value: 1.17 for the first, 1.17 for the second.

Going from B7 to B8, the “Ratio (-BP/+BP), DF-1000005” value falls from 1.52 to 1.04.

B9 was tested, and the “Ratio (-BP/+BP), DF-1000005” value was 2.23.

Compared with B1, B2 is higher in “Ratio (-BP/+BP), DF-5000006” value: 1.67 for the first, 2.07 for the second.

Going from B3 to B4, the “Ratio (-BP/+BP), DF-5000006” value falls from 1.32 to 0.99.

Going from B5 to B6, the “Ratio (-BP/+BP), DF-5000006” value falls from 1.75 to 1.54.

Going from B7 to B8, the “Ratio (-BP/+BP), DF-5000006” value falls from 1.76 to 1.27.

B9 was tested, and the “Ratio (-BP/+BP), DF-5000006” value was 4.67.

Compared with B1, B2 is higher in “Ratio (-BP/+BP), DF-25000007” value: 3.14 for the first, 5.26 for the second.

First: B3
Second: B4
The “Ratio (-BP/+BP), DF-25000007” value of the first is higher: 1.44 for the first, 0.84 for the second.

First: B5
Second: B6
The “Ratio (-BP/+BP), DF-25000007” value of the first is higher: 4 for the first, 3.3 for the second.

Going from B7 to B8, the “Ratio (-BP/+BP), DF-25000007” value rises from 1.97 to 2.2.

With B9 the “Ratio (-BP/+BP), DF-25000007” value was 3.8.
